Target: UNC-119 tagged with the C-terminal fragment of Venus (C. elegans) (UniProt Q10658)
Assay: split reporter (BiFC, NanoBiT); BiFC in vivo in transgenic C. elegans (AWC neurons); ODR-3 tagged with VN, partner tagged with VC; read-out is the percentage of animals showing Venus fluorescence

Chain of UniProt Q10658 (Q10658 whole entry, the tested form may be a part): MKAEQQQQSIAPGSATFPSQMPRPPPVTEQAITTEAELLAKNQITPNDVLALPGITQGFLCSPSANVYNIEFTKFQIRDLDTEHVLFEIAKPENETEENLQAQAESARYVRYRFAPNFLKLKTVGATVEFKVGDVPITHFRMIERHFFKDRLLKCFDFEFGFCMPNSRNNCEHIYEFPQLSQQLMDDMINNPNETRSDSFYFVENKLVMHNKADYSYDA

In the case of “ODR-3^A328P tagged with the N-terminal Venus fragment (from UniProt Q18434 1-356) (natural protein)”, the percent of animals with BiFC is reported as 51%.
Substance “ODR-3^WT tagged with the N-terminal Venus fragment (from UniProt Q18434 1-356) (natural protein)” has a percent of animals with BiFC of 81%.

— publication PMC12693566
